Results as given in PMC8948278, “Antibody-dependent enhancement (ADE) of SARS-CoV-2 pseudoviral infection requires FcγRIIB and virus-antibody complex with bivalent interaction” (Communications Biology, 2022).

Target: Recombinant SARS-CoV-2 S trimer protein (ACRO Biosystems SPN-C52H9) (SARS-CoV-2, Wuhan-Hu-1 (reference spike), UniProt P0DTC2)
Assay: SPR
Settings: both partners purified

Row | Binder | koff [s⁻¹]
1 | KIH format bivalent MW05 (MW05/KIH) (antibody, V domains shown, also called knob-in-hole format bivalent mAb; copies: + + 2) VH: EVQLVQSGAEVKKPGSSVKVSCKASGGTFSSYAISWVRQAPGQGLEWMGRIIPIFGSSNYAQKFQGRVTITADESTSTAYMELSSLRSEDTAVYYCAESPLGGGSGYSVSWFDPWGQGTLVTVSS VL: not shown | 8.52e-05
2 | KIH format bivalent MW07 (MW07/KIH) (antibody, V domains shown, also called knob-in-hole format bivalent mAb; copies: + + 2) VH: EVQLVESGGGLVQPGGSLRLSCAASGFTFSSYWMSWVRQAPGKGLEWVANIKQDASEKYYLDSLKGRFTISRDNAKNSLYLQMNSLRAEDTAVYYCARDLGILWFGDYPWGQGTLVTVSS VL: DIQMTQSPSSLSASVGDRVTITCRASQGISNSLAWYQQKPGKAPKLLLYAASTLESGVPSRFSGSGSGTDFTLTISSLQPEDFATYYCQQFYSTPRTFGQGTKVEIK | 3.02e-05
